Reference: paper PMC3324464, “The GPI Anchor Signal Sequence Dictates the Folding and Functionality of the Als5 Adhesin from Candida albicans” (PLoS ONE, 2012)
“Also recorded” adds a separate entry of the source.

Key:
[1] = Aggregation by transmission electron microscopy; assay type: physicochemical; settings: 37 °C, 2 weeks; 0.4 µM / 0.09 mg/ml (method)
Procedure: Transmission Electron Microscopy (TEM)
TEM studies were carried out on a JEOL 2100F. The proteins (0.09 mg/ml) were incubated at 37 °C for 2 weeks prior to the measurements. The proteins were spotted on a carbon-coated copper grid and positively stained with 2% uranyl acetate. The sample was then dried and examined by TEM using a 210 kV accelerating voltage.
Figure 5 Transmission electron microscope images showing aggregation by GST-Als5. […] The scale bar in each panel represents 100 nm. Left panel: 10,000X magnification. Right panel: 25,000X magnification.
(A) Prediction of β-aggregation potential for the GPI anchor attachment signal sequence (SS). The prediction of β-aggregation potential for the SS was done using TANGO (residues 1328–1347). Also shown is the propensity for α-helix, β-turn and β-sheet formation in the unfolded polypeptide chain as predicted by TANGO. […] (B). Transmission electron microscope images showing aggregation by SS and SS in the presence of GST-Als5. The samples, SS (40.0 µM), GST-Als5 (0.4 µM) and GST-Als5 (0.4 µM) + SS (40.0 µM) were incubated as 37 °C for two days before TEM images were recorded.

GST-Als5-SS [2] = target: T1, GST-Als5-SS (Candida albicans, UniProt Q5A8T7 20-1326, N-terminal GST tag (pGEX-6P-2) not cleaved, omitted here; expressed in E. coli, unglycosylated. The 4044 bp insert implies the full ORF, including the N-terminal secretion signal, although the figure); experiment: other fluorescence titration; tryptophan fluorescence of 0.02 mg/ml protein, peptide titrated in; one-site saturation model; 52 °C (secondary structure of both proteins mildly perturbed at this temperature); settings: both partners purified
GST-Als5 [3] = target: T2, GST-Als5 (Candida albicans, UniProt Q5A8T7 20-1327); experiment: as above; settings: both partners purified
T2 construct: source: E. coli BL21, purified (glutathione-agarose); not shown: GST, N-terminal, kept
T2 sequence: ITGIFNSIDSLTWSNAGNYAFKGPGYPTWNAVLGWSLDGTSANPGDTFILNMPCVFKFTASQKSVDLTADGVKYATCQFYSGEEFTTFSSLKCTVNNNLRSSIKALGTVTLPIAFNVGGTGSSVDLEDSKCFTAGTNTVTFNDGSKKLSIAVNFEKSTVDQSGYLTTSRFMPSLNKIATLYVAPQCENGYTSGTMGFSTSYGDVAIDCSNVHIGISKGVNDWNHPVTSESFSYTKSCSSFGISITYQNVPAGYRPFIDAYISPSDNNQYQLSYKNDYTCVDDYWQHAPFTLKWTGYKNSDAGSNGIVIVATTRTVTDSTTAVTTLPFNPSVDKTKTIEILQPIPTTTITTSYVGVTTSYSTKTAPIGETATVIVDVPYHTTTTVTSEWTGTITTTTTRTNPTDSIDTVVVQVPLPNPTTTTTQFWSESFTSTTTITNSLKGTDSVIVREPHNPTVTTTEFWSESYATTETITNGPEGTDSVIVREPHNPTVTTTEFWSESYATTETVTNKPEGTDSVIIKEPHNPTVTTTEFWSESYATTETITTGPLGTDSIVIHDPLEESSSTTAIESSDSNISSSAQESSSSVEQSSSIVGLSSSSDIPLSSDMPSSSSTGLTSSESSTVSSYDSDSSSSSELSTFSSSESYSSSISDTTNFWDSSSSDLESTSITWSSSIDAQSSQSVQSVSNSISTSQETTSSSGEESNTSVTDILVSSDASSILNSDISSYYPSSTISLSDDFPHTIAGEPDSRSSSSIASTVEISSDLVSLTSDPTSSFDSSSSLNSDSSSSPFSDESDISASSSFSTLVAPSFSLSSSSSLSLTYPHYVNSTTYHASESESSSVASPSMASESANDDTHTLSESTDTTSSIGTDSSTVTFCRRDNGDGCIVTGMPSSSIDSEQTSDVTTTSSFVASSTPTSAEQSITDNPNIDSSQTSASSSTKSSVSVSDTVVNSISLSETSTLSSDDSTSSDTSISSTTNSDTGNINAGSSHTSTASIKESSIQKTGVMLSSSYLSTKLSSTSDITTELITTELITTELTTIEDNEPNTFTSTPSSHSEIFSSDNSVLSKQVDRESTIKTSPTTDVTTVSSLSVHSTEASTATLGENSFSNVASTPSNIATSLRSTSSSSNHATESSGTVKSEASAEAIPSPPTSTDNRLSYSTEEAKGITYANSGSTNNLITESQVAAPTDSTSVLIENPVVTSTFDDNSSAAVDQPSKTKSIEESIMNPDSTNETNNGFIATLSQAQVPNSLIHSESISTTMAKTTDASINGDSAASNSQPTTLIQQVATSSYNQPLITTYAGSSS

GST-Als5 [4] = target: T2, GST-Als5; experiment: other fluorescence titration; tryptophan fluorescence of 0.02 mg/ml protein, peptide titrated in; one-site saturation model; 42 °C; settings: both partners purified
GST-Als5 [5] = target: T2, GST-Als5; experiment: other fluorescence titration; settings: both partners purified
GST-Als5-SS [6] = target: T1, GST-Als5-SS; experiment: other fluorescence titration; van't Hoff plots of the association constants from the fluorescence titrations at different temperatures; ΔH° from the slope; settings: both partners purified
GST-Als5 [7] = target: T2, GST-Als5; experiment: as above; settings: both partners purified

B1: GST-Als5-SS: GST fusion of Als5 with the GPI-anchor attachment signal sequence, expressed in E. coli (protein)
chain: ITGIFNSIDSLTWSNAGNYAFKGPGYPTWNAVLGWSLDGTSANPGDTFILNMPCVFKFTASQKSVDLTADGVKYATCQFYSGEEFTTFSSLKCTVNNNLRSSIKALGTVTLPIAFNVGGTGSSVDLEDSKCFTAGTNTVTFNDGSKKLSIAVNFEKSTVDQSGYLTTSRFMPSLNKIATLYVAPQCENGYTSGTMGFSTSYGDVAIDCSNVHIGISKGVNDWNHPVTSESFSYTKSCSSFGISITYQNVPAGYRPFIDAYISPSDNNQYQLSYKNDYTCVDDYWQHAPFTLKWTGYKNSDAGSNGIVIVATTRTVTDSTTAVTTLPFNPSVDKTKTIEILQPIPTTTITTSYVGVTTSYSTKTAPIGETATVIVDVPYHTTTTVTSEWTGTITTTTTRTNPTDSIDTVVVQVPLPNPTTTTTQFWSESFTSTTTITNSLKGTDSVIVREPHNPTVTTTEFWSESYATTETITNGPEGTDSVIVREPHNPTVTTTEFWSESYATTETVTNKPEGTDSVIIKEPHNPTVTTTEFWSESYATTETITTGPLGTDSIVIHDPLEESSSTTAIESSDSNISSSAQESSSSVEQSSSIVGLSSSSDIPLSSDMPSSSSTGLTSSESSTVSSYDSDSSSSSELSTFSSSESYSSSISDTTNFWDSSSSDLESTSITWSSSIDAQSSQSVQSVSNSISTSQETTSSSGEESNTSVTDILVSSDASSILNSDISSYYPSSTISLSDDFPHTIAGEPDSRSSSSIASTVEISSDLVSLTSDPTSSFDSSSSLNSDSSSSPFSDESDISASSSFSTLVAPSFSLSSSSSLSLTYPHYVNSTTYHASESESSSVASPSMASESANDDTHTLSESTDTTSSIGTDSSTVTFCRRDNGDGCIVTGMPSSSIDSEQTSDVTTTSSFVASSTPTSAEQSITDNPNIDSSQTSASSSTKSSVSVSDTVVNSISLSETSTLSSDDSTSSDTSISSTTNSDTGNINAGSSHTSTASIKESSIQKTGVMLSSSYLSTKLSSTSDITTELITTELITTELTTIEDNEPNTFTSTPSSHSEIFSSDNSVLSKQVDRESTIKTSPTTDVTTVSSLSVHSTEASTATLGENSFSNVASTPSNIATSLRSTSSSSNHATESSGTVKSEASAEAIPSPPTSTDNRLSYSTEEAKGITYANSGSTNNLITESQVAAPTDSTSVLIENPVVTSTFDDNSSAAVDQPSKTKSIEESIMNPDSTNETNNGFIATLSQAQVPNSLIHSESISTTMAKTTDASINGDSAASNSQPTTLIQQVATSSYNQPLITTYAGSS
modifications: left off: GST, N-terminal, kept
- aggregation (in words) [1]: showed very poor aggregation; also recorded: showed no propensity for aggregation

Molecule: AYKSLMT (source: synthetic peptide (USV Ltd.))
- Kd (GST-Als5-SS [2]): 2 nM
- Kd (GST-Als5 [3]): 12 nM
- Kd (GST-Als5 [4]): 9 nM
- Kd (GST-Als5 [5]): 13 nM
- dH (GST-Als5-SS [6]): 18.6 kcal/mol
- dH (GST-Als5 [7]): -0.803 kcal/mol
